Key:
Experiment in all cases: flow cytometry on transfected cells, IgG
[1] = molecular target: human CD33 Y50R (human) (UniProt P20138)
[2] = molecular target: human CD33 F44I (human) (UniProt P20138)
[3] = molecular target: human CD33 F44L (human) (UniProt P20138)
[4] = molecular target: human CD33 P46H (human) (UniProt P20138)
[5] = molecular target: human CD33 P48Q (human) (UniProt P20138)
[6] = molecular target: human CD33 I47E (human) (UniProt P20138)
[7] = molecular target: human CD33 I47S (human) (UniProt P20138)
[8] = molecular target: human CD33 Y50S (human) (UniProt P20138)
[9] = molecular target: human CD33 Y49V (human) (UniProt P20138)
[10] = molecular target: human CD33 P48T (human) (UniProt P20138)
[11] = molecular target: human CD33 Y50P (human) (UniProt P20138)
[12] = molecular target: human CD33 T42P (human) (UniProt P20138)
[13] = molecular target: human CD33 F43V (human) (UniProt P20138)
[14] = molecular target: human CD33 I47T (human) (UniProt P20138)
[15] = molecular target: human CD33 P46R (human) (UniProt P20138)
[16] = molecular target: human CD33 Y49R (human) (UniProt P20138)
[17] = molecular target: human CD33 P48Y (human) (UniProt P20138)
[18] = molecular target: human CD33 I47R (human) (UniProt P20138)
[19] = molecular target: human CD33 P46L (human) (UniProt P20138)
[20] = molecular target: human CD33 Y49C (human) (UniProt P20138)
[21] = molecular target: human CD33 P46Y (human) (UniProt P20138)
[22] = molecular target: human CD33 P46I (human) (UniProt P20138)
[23] = molecular target: human CD33 F43L (human) (UniProt P20138)
[24] = molecular target: human CD33 H45Y (human) (UniProt P20138)
[25] = molecular target: human CD33 P48N (human) (UniProt P20138)
[26] = molecular target: human CD33 P48K (human) (UniProt P20138)
[27] = molecular target: human CD33 Y50H (human) (UniProt P20138)
[28] = molecular target: human CD33 Y50D (human) (UniProt P20138)
[29] = molecular target: human CD33 Y50Q (human) (UniProt P20138)
[30] = molecular target: human CD33 P46F (human) (UniProt P20138)
[31] = molecular target: human CD33 I47Y (human) (UniProt P20138)
[32] = molecular target: human CD33 F44E (human) (UniProt P20138)
[33] = molecular target: human CD33 Y49P (human) (UniProt P20138)
[34] = molecular target: human CD33 Y50I (human) (UniProt P20138)
[35] = molecular target: human CD33 F44D (human) (UniProt P20138)
[36] = molecular target: human CD33 P48H (human) (UniProt P20138)
[37] = molecular target: human CD33 P48S (human) (UniProt P20138)
[38] = molecular target: human CD33 I47N (human) (UniProt P20138)
[39] = molecular target: human CD33 F44V (human) (UniProt P20138)
[40] = molecular target: human CD33 T42N (human) (UniProt P20138)
[41] = molecular target: human CD33 P48F (human) (UniProt P20138)
[42] = molecular target: human CD33 Y49H (human) (UniProt P20138)
[43] = molecular target: human CD33 I47P (human) (UniProt P20138)
[44] = molecular target: human CD33 P46D (human) (UniProt P20138)
[45] = molecular target: human CD33 P48I (human) (UniProt P20138)
[46] = molecular target: human CD33 I47W (human) (UniProt P20138)
[47] = molecular target: human CD33 Y49L (human) (UniProt P20138)
human CD33 Y49L (human), sequence (P20138 18-364 Y49L limits assumed): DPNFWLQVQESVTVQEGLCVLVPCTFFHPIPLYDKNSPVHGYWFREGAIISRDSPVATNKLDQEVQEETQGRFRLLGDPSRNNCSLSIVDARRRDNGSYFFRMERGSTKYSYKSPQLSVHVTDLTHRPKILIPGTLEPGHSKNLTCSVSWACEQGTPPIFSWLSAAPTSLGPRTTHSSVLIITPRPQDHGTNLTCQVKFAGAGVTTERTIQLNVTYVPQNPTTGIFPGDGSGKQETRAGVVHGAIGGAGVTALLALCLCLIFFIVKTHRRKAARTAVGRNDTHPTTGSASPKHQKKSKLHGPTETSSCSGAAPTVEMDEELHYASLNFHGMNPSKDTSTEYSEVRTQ

human CD33 Y50S (human), sequence (P20138 18-364 Y50S limits assumed): as the sequence (P20138 18-364 Y49L limits assumed) above, with L32Y, Y33S counted along it
human CD33 Y49C (human), sequence (P20138 18-364 Y49C limits assumed): as the sequence (P20138 18-364 Y49L limits assumed) above, with L32C counted along it
human CD33 Y49R (human), sequence (P20138 18-364 Y49R limits assumed): as the sequence (P20138 18-364 Y49L limits assumed) above, with L32R counted along it
human CD33 P48N (human), sequence (P20138 18-364 P48N limits assumed): as the sequence (P20138 18-364 Y49L limits assumed) above, with P31N, L32Y counted along it
human CD33 Y50D (human), sequence (P20138 18-364 Y50D limits assumed): as the sequence (P20138 18-364 Y49L limits assumed) above, with L32Y, Y33D counted along it
human CD33 P48S (human), sequence (P20138 18-364 P48S limits assumed): as the sequence (P20138 18-364 Y49L limits assumed) above, with P31S, L32Y counted along it
human CD33 H45Y (human), sequence (P20138 18-364 H45Y limits assumed): as the sequence (P20138 18-364 Y49L limits assumed) above, with H28Y, L32Y counted along it
human CD33 I47S (human), sequence (P20138 18-364 I47S limits assumed): as the sequence (P20138 18-364 Y49L limits assumed) above, with I30S, L32Y counted along it
human CD33 Y50I (human), sequence (P20138 18-364 Y50I limits assumed): as the sequence (P20138 18-364 Y49L limits assumed) above, with L32Y, Y33I counted along it
human CD33 P46F (human), sequence (P20138 18-364 P46F limits assumed): as the sequence (P20138 18-364 Y49L limits assumed) above, with P29F, L32Y counted along it
human CD33 P48F (human), sequence (P20138 18-364 P48F limits assumed): as the sequence (P20138 18-364 Y49L limits assumed) above, with P31F, L32Y counted along it
human CD33 P46L (human), sequence (P20138 18-364 P46L limits assumed): as the sequence (P20138 18-364 Y49L limits assumed) above, with P29L, L32Y counted along it
human CD33 I47T (human), sequence (P20138 18-364 I47T limits assumed): as the sequence (P20138 18-364 Y49L limits assumed) above, with I30T, L32Y counted along it

Refmab #7 (WM53) (antibody)
Mean % WT Binding [1]: 1.7 % WT binding
Mean % WT Binding [2]: 46.1 % WT binding
Mean % WT Binding [3]: 99.6 % WT binding
Mean % WT Binding [4]: 94.3 % WT binding
Mean % WT Binding [5]: 1.3 % WT binding
Mean % WT Binding [6]: 3.9 % WT binding
Mean % WT Binding [7]: 33.6 % WT binding
Mean % WT Binding [8]: 7.7 % WT binding
Mean % WT Binding [9]: 0.9 % WT binding
Mean % WT Binding [10]: 1.6 % WT binding
Mean % WT Binding [11]: 0.4 % WT binding
Mean % WT Binding [12]: 15.9 % WT binding
Mean % WT Binding [13]: 73.4 % WT binding
Mean % WT Binding [14]: 32.7 % WT binding
Mean % WT Binding [15]: 33.4 % WT binding
Mean % WT Binding [16]: 1.6 % WT binding
Mean % WT Binding [17]: 0.5 % WT binding
Mean % WT Binding [18]: 2 % WT binding
Mean % WT Binding [19]: 66.8 % WT binding
Mean % WT Binding [20]: 0.6 % WT binding
Mean % WT Binding [21]: 8.6 % WT binding
Mean % WT Binding [22]: 107 % WT binding
Mean % WT Binding [23]: 94 % WT binding
Mean % WT Binding [24]: 75.7 % WT binding
Mean % WT Binding [25]: 4.3 % WT binding
Mean % WT Binding [26]: 1.6 % WT binding
Mean % WT Binding [27]: 18 % WT binding
Mean % WT Binding [28]: 1.2 % WT binding
Mean % WT Binding [29]: 7.2 % WT binding
Mean % WT Binding [30]: 23 % WT binding
Mean % WT Binding [31]: 79.6 % WT binding
Mean % WT Binding [32]: 18.3 % WT binding
Mean % WT Binding [33]: 11.7 % WT binding
Mean % WT Binding [34]: 5.1 % WT binding
Mean % WT Binding [35]: 9.5 % WT binding
Mean % WT Binding [36]: 1.6 % WT binding
Mean % WT Binding [37]: 2.6 % WT binding
Mean % WT Binding [38]: 4.7 % WT binding
Mean % WT Binding [39]: 36.1 % WT binding
Mean % WT Binding [40]: 95.4 % WT binding
Mean % WT Binding [41]: 0.2 % WT binding
Mean % WT Binding [42]: 27.8 % WT binding
Mean % WT Binding [43]: 1.2 % WT binding
Mean % WT Binding [44]: 15.9 % WT binding
Mean % WT Binding [45]: 0.1 % WT binding
Mean % WT Binding [46]: 45.4 % WT binding
Mean % WT Binding [47]: 1.6 % WT binding

From US20260242735A1
